Assay results published in publication PMC9365671.

Key:
Conditions in all cases: remark: other sources report otherwise
[1] = target: T1, full-length human KIF5B-mScarlet-StrepII (human), P33176; assay: SEC-MALS; purified full-length KIF5 alone; BioSep SEC-s4000 column, GF150 buffer (25 mM HEPES-KOH, 150 mM KCl, 2 mM MgCl2)
T1 chain: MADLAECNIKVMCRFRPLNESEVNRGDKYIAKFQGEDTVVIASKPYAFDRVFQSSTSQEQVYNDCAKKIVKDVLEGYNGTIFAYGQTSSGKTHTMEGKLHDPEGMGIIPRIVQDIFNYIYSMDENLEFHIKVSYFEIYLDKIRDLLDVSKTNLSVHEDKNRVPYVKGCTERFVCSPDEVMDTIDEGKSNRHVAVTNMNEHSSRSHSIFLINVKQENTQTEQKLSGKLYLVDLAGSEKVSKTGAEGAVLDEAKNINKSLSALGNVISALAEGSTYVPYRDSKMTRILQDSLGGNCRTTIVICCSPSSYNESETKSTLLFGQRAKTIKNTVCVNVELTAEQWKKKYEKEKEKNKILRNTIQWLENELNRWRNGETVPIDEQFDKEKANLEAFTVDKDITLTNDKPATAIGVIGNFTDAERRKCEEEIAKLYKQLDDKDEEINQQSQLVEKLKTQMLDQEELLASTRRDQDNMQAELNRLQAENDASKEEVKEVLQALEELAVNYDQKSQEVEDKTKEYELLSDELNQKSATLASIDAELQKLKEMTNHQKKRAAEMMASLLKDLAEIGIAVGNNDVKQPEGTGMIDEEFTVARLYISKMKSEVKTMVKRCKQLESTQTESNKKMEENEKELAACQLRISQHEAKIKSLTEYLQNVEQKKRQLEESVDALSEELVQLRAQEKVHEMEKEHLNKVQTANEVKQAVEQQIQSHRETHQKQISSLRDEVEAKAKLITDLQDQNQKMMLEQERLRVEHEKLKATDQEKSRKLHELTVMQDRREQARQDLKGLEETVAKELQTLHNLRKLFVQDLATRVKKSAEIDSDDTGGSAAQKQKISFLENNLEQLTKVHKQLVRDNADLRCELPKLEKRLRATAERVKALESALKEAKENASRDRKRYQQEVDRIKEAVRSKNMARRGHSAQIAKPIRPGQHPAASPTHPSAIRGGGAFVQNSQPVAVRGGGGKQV

[2] = target: T2, full-length human KIF5A-mScarlet-StrepII (human), Q12840; assay: as above
T2 chain: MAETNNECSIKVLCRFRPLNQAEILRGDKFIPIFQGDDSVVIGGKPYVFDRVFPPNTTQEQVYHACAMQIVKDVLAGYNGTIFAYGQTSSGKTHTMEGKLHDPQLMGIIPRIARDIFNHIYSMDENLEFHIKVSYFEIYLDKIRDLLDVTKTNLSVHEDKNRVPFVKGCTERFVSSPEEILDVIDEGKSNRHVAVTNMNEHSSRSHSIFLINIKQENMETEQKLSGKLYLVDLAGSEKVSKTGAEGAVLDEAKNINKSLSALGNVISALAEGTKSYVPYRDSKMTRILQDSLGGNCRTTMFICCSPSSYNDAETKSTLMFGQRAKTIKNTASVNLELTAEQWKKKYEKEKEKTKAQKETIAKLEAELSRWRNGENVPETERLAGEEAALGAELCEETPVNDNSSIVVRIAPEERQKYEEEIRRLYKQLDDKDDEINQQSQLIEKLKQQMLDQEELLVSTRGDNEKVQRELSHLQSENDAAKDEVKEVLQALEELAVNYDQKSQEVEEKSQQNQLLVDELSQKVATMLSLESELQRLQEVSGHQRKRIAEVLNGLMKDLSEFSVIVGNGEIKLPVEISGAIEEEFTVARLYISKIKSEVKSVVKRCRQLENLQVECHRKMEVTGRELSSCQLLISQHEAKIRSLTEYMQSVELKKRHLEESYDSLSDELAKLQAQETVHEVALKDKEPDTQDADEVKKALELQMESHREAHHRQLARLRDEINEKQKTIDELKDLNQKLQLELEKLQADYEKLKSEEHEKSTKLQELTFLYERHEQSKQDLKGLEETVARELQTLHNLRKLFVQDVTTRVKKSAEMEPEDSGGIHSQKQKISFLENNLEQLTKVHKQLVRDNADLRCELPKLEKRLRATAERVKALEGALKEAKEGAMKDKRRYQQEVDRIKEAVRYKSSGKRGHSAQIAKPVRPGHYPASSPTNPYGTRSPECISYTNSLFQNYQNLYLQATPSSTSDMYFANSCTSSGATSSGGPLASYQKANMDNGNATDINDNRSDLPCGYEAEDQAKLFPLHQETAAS

[3] = target: T2, full-length human …; assay: single-molecule fluorescence brightness (TIRF microscopy); brightness of motile KIF5A-mScarlet molecules on microtubules, ATP

Row | Binder | stoichiometry N [1] | stoichiometry N [2] | stoichiometry N [3]
1 | full-length human KIF5B-mScarlet-StrepII, P33176 1-963 (natural protein) MADLAECNIKVMCRFRPLNESEVNRGDKYIAKFQGEDTVVIASKPYAFDRVFQSSTSQEQVYNDCAKKIVKDVLEGYNGTIFAYGQTSSGKTHTMEGKLHDPEGMGIIPRIVQDIFNYIYSMDENLEFHIKVSYFEIYLDKIRDLLDVSKTNLSVHEDKNRVPYVKGCTERFVCSPDEVMDTIDEGKSNRHVAVTNMNEHSSRSHSIFLINVKQENTQTEQKLSGKLYLVDLAGSEKVSKTGAEGAVLDEAKNINKSLSALGNVISALAEGSTYVPYRDSKMTRILQDSLGGNCRTTIVICCSPSSYNESETKSTLLFGQRAKTIKNTVCVNVELTAEQWKKKYEKEKEKNKILRNTIQWLENELNRWRNGETVPIDEQFDKEKANLEAFTVDKDITLTNDKPATAIGVIGNFTDAERRKCEEEIAKLYKQLDDKDEEINQQSQLVEKLKTQMLDQEELLASTRRDQDNMQAELNRLQAENDASKEEVKEVLQALEELAVNYDQKSQEVEDKTKEYELLSDELNQKSATLASIDAELQKLKEMTNHQKKRAAEMMASLLKDLAEIGIAVGNNDVKQPEGTGMIDEEFTVARLYISKMKSEVKTMVKRCKQLESTQTESNKKMEENEKELAACQLRISQHEAKIKSLTEYLQNVEQKKRQLEESVDALSEELVQLRAQEKVHEMEKEHLNKVQTANEVKQAVEQQIQSHRETHQKQISSLRDEVEAKAKLITDLQDQNQKMMLEQERLRVEHEKLKATDQEKSRKLHELTVMQDRREQARQDLKGLEETVAKELQTLHNLRKLFVQDLATRVKKSAEIDSDDTGGSAAQKQKISFLENNLEQLTKVHKQLVRDNADLRCELPKLEKRLRATAERVKALESALKEAKENASRDRKRYQQEVDRIKEAVRSKNMARRGHSAQIAKPIRPGQHPAASPTHPSAIRGGGAFVQNSQPVAVRGGGGKQV | 2 |  | 
2 | full-length human KIF5A-mScarlet-StrepII, Q12840 1-1032 (natural protein) MAETNNECSIKVLCRFRPLNQAEILRGDKFIPIFQGDDSVVIGGKPYVFDRVFPPNTTQEQVYHACAMQIVKDVLAGYNGTIFAYGQTSSGKTHTMEGKLHDPQLMGIIPRIARDIFNHIYSMDENLEFHIKVSYFEIYLDKIRDLLDVTKTNLSVHEDKNRVPFVKGCTERFVSSPEEILDVIDEGKSNRHVAVTNMNEHSSRSHSIFLINIKQENMETEQKLSGKLYLVDLAGSEKVSKTGAEGAVLDEAKNINKSLSALGNVISALAEGTKSYVPYRDSKMTRILQDSLGGNCRTTMFICCSPSSYNDAETKSTLMFGQRAKTIKNTASVNLELTAEQWKKKYEKEKEKTKAQKETIAKLEAELSRWRNGENVPETERLAGEEAALGAELCEETPVNDNSSIVVRIAPEERQKYEEEIRRLYKQLDDKDDEINQQSQLIEKLKQQMLDQEELLVSTRGDNEKVQRELSHLQSENDAAKDEVKEVLQALEELAVNYDQKSQEVEEKSQQNQLLVDELSQKVATMLSLESELQRLQEVSGHQRKRIAEVLNGLMKDLSEFSVIVGNGEIKLPVEISGAIEEEFTVARLYISKIKSEVKSVVKRCRQLENLQVECHRKMEVTGRELSSCQLLISQHEAKIRSLTEYMQSVELKKRHLEESYDSLSDELAKLQAQETVHEVALKDKEPDTQDADEVKKALELQMESHREAHHRQLARLRDEINEKQKTIDELKDLNQKLQLELEKLQADYEKLKSEEHEKSTKLQELTFLYERHEQSKQDLKGLEETVARELQTLHNLRKLFVQDVTTRVKKSAEMEPEDSGGIHSQKQKISFLENNLEQLTKVHKQLVRDNADLRCELPKLEKRLRATAERVKALEGALKEAKEGAMKDKRRYQQEVDRIKEAVRYKSSGKRGHSAQIAKPVRPGHYPASSPTNPYGTRSPECISYTNSLFQNYQNLYLQATPSSTSDMYFANSCTSSGATSSGGPLASYQKANMDNGNATDINDNRSDLPCGYEAEDQAKLFPLHQETAAS |  | 4 | 4
